According to article PMC8682754 (Nucleic Acids Research, 2021):
Where a chain is given by its changes, count along the chain named. Where two headings read alike, the source gives them in different places.

Experiments:
[1] = target: SegA (Sulfolobus solfataricus)
[2] = target: SegB (Sulfolobus solfataricus); assay: SEC
[3] = target: T1, SegA (Saccharolobus solfataricus, UniProt Q981B3); assay: X-ray crystal structure; type: binding; details: nucleotide pocket
T1 sequence (Q981B3 1-220): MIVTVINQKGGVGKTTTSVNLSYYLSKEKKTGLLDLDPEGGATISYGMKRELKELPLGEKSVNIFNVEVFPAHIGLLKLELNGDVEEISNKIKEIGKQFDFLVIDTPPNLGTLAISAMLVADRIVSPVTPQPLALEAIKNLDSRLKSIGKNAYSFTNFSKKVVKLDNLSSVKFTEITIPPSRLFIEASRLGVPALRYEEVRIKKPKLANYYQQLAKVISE

[4] = target: SegA (Sulfolobus solfataricus); assay: SEC
[5] = target: T2, SegBΔ33 (Sulfolobus solfataricus, UniProt Q981B2 34-109, del1-33); assay: fluorescence polarization
T2 sequence: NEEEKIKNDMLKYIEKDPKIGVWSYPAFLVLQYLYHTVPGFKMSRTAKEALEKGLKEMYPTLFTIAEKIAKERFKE

[6] = target: T3, SegB (Sulfolobus solfataricus, UniProt Q981B2 1-109); assay: fluorescence polarization
T3 sequence: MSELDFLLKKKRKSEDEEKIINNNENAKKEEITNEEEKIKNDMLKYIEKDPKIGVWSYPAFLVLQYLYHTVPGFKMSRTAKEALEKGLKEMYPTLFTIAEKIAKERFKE

[7] = target: T4, SegA-K14Q (Sulfolobus solfataricus, UniProt Q981B3 1-220, K14Q); assay: fluorescence polarization
T4 sequence: T1 sequence (Q981B3 1-220) with K14Q

[8] = target: T5, SegA-G10V (Sulfolobus solfataricus, UniProt Q981B3 1-220, G10V); assay: fluorescence polarization
T5 sequence: T1 sequence (Q981B3 1-220) with G10V

[9] = target: T6, SegA-Q131A (Sulfolobus solfataricus, UniProt Q981B3 1-220, Q131A); assay: fluorescence polarization
T6 sequence: T1 sequence (Q981B3 1-220) with Q131A

[10] = target: T7, SegA-Q131A/F158A (Sulfolobus solfataricus, UniProt Q981B3 1-220, Q131A;F158A); assay: fluorescence polarization
T7 sequence: T1 sequence (Q981B3 1-220) with Q131A, F158A

[11] = target: T8, SegA (Sulfolobus solfataricus, UniProt Q981B3 1-220); assay: fluorescence polarization
T8 sequence: T1 sequence (Q981B3 1-220)

[12] = target: T8, SegA; assay: fluorescence polarization; remark: listed apart in the source
[13] = target: T8, SegA; assay: fluorescence polarization; remark: listed apart in the source
[14] = target: T2, SegBΔ33; assay: crystal structure

SegB (natural protein) gave an increase of SegA ATPase activity upon addition of both SegB and S1 DNA [1] of 1000 fold and a stoichiometry N [2] of 2.

For `Nc1ncnc2c1ncn2[C@@H]1O[C@H](COP(=O)(O)OP(=O)(O)NP(=O)(O)O)[C@@H](O)[C@H]1O` [AMPPNP, adenosine 5′-(β,γ-imido)triphosphate], the X-ray crystal structure [3] was “We observed AMPPNP inside the nucleotide binding pocket”.

SegA (enzyme) was tested, and the stoichiometry N [4] was 2.

B1: 23-bp S1 DNA (dsDNA)
DNA 1: TACGTAGAAGAGTCTAGACTGAC
DNA 2: TCAGTCTAGACTCTTCTACGTAG
B1 was tested, and the Kd [5] was 280 nM, the Kd [6] was 180 nM and the binding result [7] was “binds”. B1: binds [8]; no binding [9]; no binding [10].

B2: 24-bp nsDNA (dsDNA)
DNA 1: AGGGTGTTCCACGTGAAACAGGGA
DNA 2: TCCCTGTTTCACGTGGAACACCCT
Work on B2 yielded a Kd [11] of 450 nM, a Kd [12] of 240 nM and a Kd [13] of 710 nM.

B3: 21-bp S1 DNA (dsDNA)
DNA 1: ACGTAGAAGAGTCTAGACTGA
DNA 2: CAGTCTAGACTCTTCTACGTA
B3: binds [14].
